Assay results published in the supplement of paper PMC9170038.

Test system: MS2 coat protein
Test: apparent KD of MS2 coat protein; designed switch direction (-1 OFF switch, 1 ON switch): -1; higher = weaker reporter binding
Procedure, shortened: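 Three titration conditions were used: no input, 200 uM small-molecule ligand, and an oligonucleotide input. In each, SNAP-549-labelled MS2 coat protein was raised from 0.7 or 1.5 nM, doubling, to 3 µM over designed RNA switches transcribed on Illumina chips by stalled E. coli RNA polymerase. Curve fits of normalised cluster fluorescence gave values whose per-design median over clusters is the apparent KD.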

[1] = input ligand: microRNA oligo, concentration not stated
[2] = Eterna round: R95, input ligand: microRNA oligo, concentration not stated

Sequence | apparent KD of MS2 coat protein (input ligand: FMN 200 uM) | apparent KD of MS2 coat protein (input ligand: none) | apparent KD of MS2 coat protein [1] | apparent KD of MS2 coat protein [2]
UCACAAGCUGUGGGUGGUGACAUGAGGAUCACCCAUGUUUUGCUCGUCUUGUGCCGGGCCCGGCGCCCGGGCCCGGC [-42.1, -69.5, A 12%] (Eterna round: R97, puzzle: Sensor, turn-off variant 1) | 929 nM |  |  | 
UCACAGGCUGUGGGUGGUGACAUGAGGAUCACCCAUGUUUUGCUCGUCUUGUGCCGGGCCCGGCGCCCGGGCCCGGC [-41.8, -69.2, A 10%] (Eterna round: R97, puzzle: Sensor, turn-off variant 1) | 575 nM | 1210 nM |  | 
UCACCUGGGUCAGGAUAUAAAGGGUCAGGAAGUUUAGAAGGGACUUAGGACAUGAGGAUCACCCAUGUUGAGAACUCGUUUGUA [Eternabot solution 25] (Eterna round: R96, puzzle: Exclusion NG 1) | 46.2 nM | 36.7 nM | 27.5 nM | 
UCAGGCAAGUGUACAGCCAACAUGAGGAUCACCCAUGUCGGGAGAAGGACUGUUACACACCGCUCGUCUUACUUGCC [Eternabot (Original) Solution 35] (Eterna round: R97, puzzle: Sensor, turn-off variant 1) | 18.3 nM | 23.1 nM |  | 
UCAGUUUUGCGAGGAUAUCGACCAUUCCUCUUUACAUGAGGAUCACCCAUGUGCUUAUCCUACAACGAGAAGGCGCUCAUACUC [JR_ExcNG2_Sub065] (Eterna round: R96, puzzle: Exclusion NG 2) | 543 nM | 574 nM | 580 nM | 
UCAUAACAUGAGGAUCACCCAUGUCAGGAUAUGAUACUAUGUACUUCGGUACAUAGUAUCAGAAGGGACAUGCU [Brourd's Ex1-3: 12 (nt 72 G)] (puzzle: Exclusion 1) |  |  |  | 135 nM
UCAUAUAACGAGGAUAUGCGGGCCGUUUUCCCAGCAGAAGGCGUUACAUGAGGAUCACCCAUGUACCCGGGUAA [EX6 A.29] (Eterna round: R97, puzzle: Exclusion 6) | 18.1 nM | 515 nM |  | 
UCAUGUCCAGAGGAUAUGUAGAUCGAGAGAUCAACAGAAGGCUGGACAUGAGGAUCACCCAUGUGCGCCUUCAA [jl-ex3-4.29 ViennaUCT mod] (Eterna round: R97, puzzle: Exclusion 6) | 70.6 nM | 188 nM |  | 
UCAUGUCCAGAGGAUAUGUAGCGGGAGACCGCAACAGAAGGCUGGACAUGAGGAUCACCCAUGUGCGCCUUCAA [jl-ex3-4.28 ViennaUCT mod] (Eterna round: R97, puzzle: Exclusion 6) | 43 nM | 352 nM |  | 
UCAUGUCCAGAGGAUAUGUAGCGGGAGACCGCAACAGAAGGCUGGACAUGAGGAUCACCCAUGUGCGCCUUCGA [jl-ex3-4.27 ViennaUCT mod] (Eterna round: R97, puzzle: Exclusion 6) | 35.9 nM | 113 nM |  | 
UCCCACCGAGGAUAUGACCAUCAGAACAUGAGGAUCACCCAUGUAUUUCUAUGUUCAGAGUCAGAAGGCGGUUUAU [Eternabot (L2) Solution 20] (Eterna round: R97, puzzle: Exclusion 5) | 190 nM | 72.4 nM |  | 
UCCCGAUACUAGGAUAUGAGUUCACAGGAACGAUCAGAAGGAGUUACAUGAGGAUCACCCAUGUGGGUGUAUUG [Eternabot (L1) Solution 37] (Eterna round: R97, puzzle: Exclusion 6) | 120 nM | 237 nM |  | 
UCCCGUCUAUGGAGAUUUUACAUGAGGAUCACCCAUGUUGGGACCGCUCUUUGCUUGUCUUCUCCUACUUCGUGUGU [mod-Gracier #4] (Eterna round: R97, puzzle: Sensor, turn-off variant 1) | 82.7 nM | 87.2 nM |  | 
UCCUAACAUGAGGAUCACCCAUGUCAGGAUAUGAUACUAUGUACUUCGGUACAUAGUAUCAGAAGGGACAUCCU [Ex1-3: 9] (puzzle: Exclusion 1) |  |  |  | 14.7 nM
UCCUGUUAUGUUAGGAUAUCUGGUUCGACUCGAACAGAGAAGGAACAUGAGGAUCACCCAUGUCCCGGUGAUAA [Eternabot (L2) Solution 19] (Eterna round: R97, puzzle: Brourd's mod of Exclusion 4) | 85.6 nM | 33.1 nM |  | 
UCCUUACUUGAGGAUCACCCAAGUCAGGAUAUACACCAGAAUAAAUCCCAGCCCUGGCGUAGAAGGGACGGGUG [Esesle] (Eterna round: R97, puzzle: Exclusion 1) | 23 nM | 25.1 nM |  | 

Sequence | apparent KD of MS2 coat protein (input ligand: FMN 200 uM) | apparent KD of MS2 coat protein (input ligand: none) | apparent KD of MS2 coat protein [1] | apparent KD of MS2 coat protein [2]
UCGACGUCGUCAGGAUAUAGUCUUAAUGUCAUGCUUUUGUUCGUACAUGAGGAUCACCCAUGUGGCUAGAAGGGACUAAAGAUU [JR_ExcNG2_Sub015] (Eterna round: R96, puzzle: Exclusion NG 2) | 12.3 nM | 15.8 nM | 10.1 nM | 
UCGCCGCCCUUGGGCGGCGACAUGAGGAUCACCCAUGUCAAGCUUUUUGCUCGUUUUAUAGCCGGCCUUGGCCGGCA [Olib_3] (Eterna round: R97, puzzle: Sensor, turn-off variant 1) | 27.9 nM | 29.4 nM |  | 
UCGCUGCGAGGAUAUACGUUUGCGCGUUUUCGUUUGCGCGUACAUGAGGAUCACCCAUGUAGAAGGCGCGCGGC [Apr-15 SS2-11] (puzzle: Exclusion 2) |  |  |  | 12.2 nM
UCGCUGCGAGGAUAUACGUUUGCGCGUUUUCGUUUGCGCGUACAUGAGGAUCACCCAUGUAGAAGGCGCGCUGC [Apr-15 SS2-10] (puzzle: Exclusion 2) |  |  |  | 13.3 nM
UCUCGAAGGCAAGGAUAUCCUACAUUGUUCUGGCCCGGGCAUGCUACAUGAGGAUCACCCAUGUGGGAGAAGGUGCGCCACGGC [Design 29] (Eterna round: R96, puzzle: Exclusion NG 2) | 31.6 nM | 43.1 nM | 32.9 nM | 
UCUCGCGGGCAAGGAUAUCCUACGUUGUUCUGGCCCGUGCAUGUUACAUGAGGAUCACCCAUGUGGGAGAAGGUGCGCCAGGGC [Design 37] (Eterna round: R96, puzzle: Exclusion NG 2) | 51.3 nM | 59.8 nM | 36.7 nM | 
UCUCGGACAGGAUAUCUGUCAUCUGACAUGAGGAUCACCCAUGUCCUCGCCGCCAACCCAAGAGAAGGGUCCCACA [Eternabot (L1) Solution 76] (Eterna round: R97, puzzle: Exclusion 5) | 99.2 nM | 120 nM |  | 
UCUCGUUGGCAAGGAUAUCCUACAUUGUUCUGGCCCGGGCAUGCUACAUGAGGAUCACCCAUGUGGGAGAAGGUGCGCCACUGC [Design 25] (Eterna round: R96, puzzle: Exclusion NG 2) | 95.5 nM | 108 nM | 67.6 nM | 
UCUGGUCGAGGAUAUACAUGAGGAUCACCCAUGUAGAUCAACCAGCGAUAGCUGGAAUGUAGAAGGCGACCAGA [E3/5-A3] (Eterna round: R97, puzzle: Exclusion 3) | 381 nM | 30.4 nM |  | 
UCUUAUUGAGGAUAUACAGAUUAUUACAUGAGGAUCACCCAUGUUCUUCAAUGUAUAUAUGUAGAAGGCAGAGGAA [Mat - Exclusion 5 - JL Mod - D11] (Eterna round: R97, puzzle: Exclusion 5) | 112 nM | 67.4 nM |  | 
UCUUAUUGAGGAUAUACAGAUUAUUACAUGAGGAUCACCCAUGUUCUUCAAUGUAUAUAUGUAGAAGGCAGAGGAU [Mat - Exclusion 5 - JL Mod - D12] (Eterna round: R97, puzzle: Exclusion 5) | 217 nM | 68.6 nM |  | 
UCUUUCAUUGUGAGGAUAUGCCCAAAUAAAAGCGGGCAGAAGGCACAUGAGGAUCACCCAUGUCCUGCGGUUUU [salish99_bmx4_r4_149] (Eterna round: R97, puzzle: Brourd's mod of Exclusion 4) | 177 nM | 40.7 nM |  | 
UGAAUGUGAGGAUAUGGUGAGUAGUGCCAGAGCGCUGCUCACCAGAAGGCACAUGAGGAUCACCCAUGUACUUG [Mat - Exclusion 4 - Mod of JL - D18] (puzzle: Exclusion 4) |  |  |  | 47.8 nM
UGAGCUACAGGAUAUACAAGGCGACCGUGAGGUCGAAGGUUACAUGAGGAUCACCCAUGUAGAAGGGUAGUUCU [Mat - Exclusion 2 - JL Mod - D15] (Eterna round: R97, puzzle: Exclusion 2) | 130 nM | 126 nM |  | 
UGAGGACAUGAGGAUCACCCAUGUAAGGAUAUGCGGAGAGUUUGGAGAGGUUGAGGAGGCAGAAGGUACAGGAU [JR_Exclu1_Sub047] (puzzle: Exclusion 1) |  |  |  | 49.2 nM
UGAUCACAUGAGGAUCACCCAUGUCAGGAUAUCGUCACUGGAGCCUCGGCUCCAGUGACGAGAAGGGACAUAAU [E1/3-A2] (Eterna round: R97, puzzle: Exclusion 1) | 137 nM | 253 nM |  | 
